Results published in patent US20240252795A1, “INGESTIBLE DEVICE FOR DELIVERY OF THERAPEUTIC AGENT TO THE GASTROINTESTINAL TRACT” (BIORA THERAPEUTICS, INC., priority 2018, published 2024).
Where “and” joins values, the source holds several entries; their conditions need not be identical. Equal entries are not always repeated. Where two headings read alike, the source gives them in different places.

Key:
[1] = pig, in vivo
[2] = PK of regular human insulin (NOVOLIN R) after SC or intra-jejunal jet delivery, blood insulin levels; type: in vivo, swine; details: for Cmax / Tmax: IJ administration by jet delivery device, blood insulin
Procedure: A total of 18 Yorkshire female swine in good health and weighing 60-70 kg each were included in this study. Swine were divided into two groups with 9 animals per group. […] A sham surgical laparotomy was performed. […] The jet delivery device was configured with the single nozzle in an axial orientation.
Swine were divided into two groups with 9 animals per group. […] In all 18 animals, a laparotomy procedure was performed to expose the abdominal cavity. Animals remained under anesthesia during the entire procedure for the PK/PD study.
For the laparotomy in group 02, a small segment of the jejunal mucosa and serosa was exposed by midline laparotomy and the jet delivery device was inserted through antimesenteric incision.
(§1) Blood samples were kept on wet ice until centrifugation and separation of plasma. […] Glucose was monitored every five (5) minutes during the study by portable glucose analyzer (StatStrip (SS) hospital glucose monitoring system (Nova Biomedical, Waltham, MA)). At each time point, approximate 0.1 mL of blood was drawn and immediately placed on a glucose monitoring test strip, and the whole blood glucose concentration was measured by the SS in triplicate.
The animals were anesthetized for the entire ECP.

blood glucose = test: Euglycemic clamp procedure: blood glucose and dextrose infusion rate after NOVOLIN R; type: in vivo, swine; details: for mean blood glucose level: euglycemic clamp
Procedure: as §1
A euglycemic clamp procedure (ECP) was employed to compare pharmacokinetics and pharmacodynamics of regular human Insulin (NOVOLIN® R) delivered subcutaneously (SC) in the neck versus intra-jejunally (IJ) by the jet delivery device in the small intestine. ECP was used to quantify the amount of glucose required to maintain normoglycemia after exogenous bolus of insulin. […] The animals were anesthetized for the entire ECP.

[3] = SC administration, swine, group average
[4] = SC administration, swine, individual animals

**Q.** Which “Bioavailability relative to IV” value [1] does the source give for “dulaglutide: long-acting GLP-1 receptor agonist, GLP-1 analogue linked to modified human IgG4 Fc, about 63 kDa” here?
**A.** The value was 26.51%.

**Q.** What about the “Bioavailability relative to SC” value [1] of the same substance?
**A.** Its value is 49.11%.

**Q.** What about the “plasma level in one animal in Group 1 (no. 8487; ID)” value [1] of the same substance?
**A.** Its value is “below the limit of detection”.

**Q.** And the “(AUC)T0-T240 h ± SEM” value ([1]; 1.2 mg)?
**A.** Its value is 4355.86 ng·h/mL.

**Q.** What about the “AUCID (mean ± SEM)” value ([1]; 1.2 mg) of the same substance?
**A.** Its value is 3890.00 ± 94.73 ng·h/mL.

**Q.** And the Cmax ([1]; 1.2 mg)?
**A.** The Cmax was 70.65 ng.

**Q.** And the Tmax ([1]; 1.2 mg)?
**A.** The Tmax was 8 h.

**Q.** And the “Bioavailability relative to IV” value ([1]; iv)?
**A.** The value was 100%.

**Q.** What about the “(AUC)T0-T240 h ± SEM” value ([1]; iv, 1.2 mg) of the same substance?
**A.** Its value is 16429.33 ng·h/mL.

**Q.** And the Cmax ([1]; iv, 1.2 mg)?
**A.** Its Cmax is 632.93 ng.

**Q.** And the Tmax ([1]; iv, 1.2 mg)?
**A.** The Tmax was 1 h.

**Q.** And the “Bioavailability relative to SC” value ([1]; sc)?
**A.** The value was 100%.

**Q.** And the “(AUC)T0-T240 h ± SEM” value ([1]; sc, 1.2 mg)?
**A.** Its value is 8869 ng·h/mL.

**Q.** And the Cmax ([1]; sc, 1.2 mg)?
**A.** Its Cmax is 141.3 ng.

**Q.** And the Tmax ([1]; sc, 1.2 mg)?
**A.** The Tmax was 6 h.

**Q.** What does the source list for “NOVOLIN® R: regular human insulin (NOVOLIN® R)”?
**A.** Cmax ([2]; Average of 8 animals): 77.40 uIU/mL; Tmax ([2]; Average of 8 animals): 55.63 min; Cmax ([2]; individual animal): 40.93 uIU/mL and 96.77 uIU/mL and 5.03 uIU/mL and 7.96 uIU/mL and 48.77 uIU/mL and 85.38 uIU/mL and 207.96 uIU/mL and 126.39 uIU/mL; Tmax ([2]; individual animal): 20 min and 50 min and 90 min (2×) and 40 min (3×); blood insulin level in animal 18P18 ([2]; SC administration group, compared with rest of group): significantly higher than the rest of the animals in the group; Cmax of blood insulin, Average [2, 3]: 202.94 uIU/mL; Tmax of blood insulin, Average [2, 3]: 1.452 h; Cmax of blood insulin [2, 4]: 451.00 uIU/mL and 60.74 uIU/mL and 354.00 uIU/mL and 356.60 uIU/mL and 65.71 uIU/mL and 59.18 uIU/mL and 73.34 uIU/mL; Tmax of blood insulin [2, 4]: 50 min (2×) and 180 min and 105 min and 30 min and 120 min; maximum plasma concentration Cmax, SC group compared with IJ group ([2]; SC versus IJ administration): higher than that of the IJ administration group; time to maximum plasma concentration (Tmax) ([2]; jejunum (IJ) administration via jet delivery device, swine, group mean): 0.9272 h; mean blood glucose level (blood glucose; IJ administration group): 89.6 mg/dL; mean blood glucose level (blood glucose; SC administration group): 83.5 mg/dL; mean dextrose infusion rate, IJ versus SC group (blood glucose; from 75 minutes to 420 minutes post-administration): higher in the SC administration group
